Data: patent US20240124593A1

Biological target: human FcRn (human) (UniProt P55899)
Test: SPR Biacore 3000, antibody immobilised on CM5, hFcRn analyte, pH 7.5, 25 C, 1:1 fit

- Kd: 1.9 nM
Substance: DX-2504 (antibody)
